The results in this text go back to US20220064331A1 (Genentech, published 2022).

T1: rhesus monkey KLB (+N-ter FLAG) (rhesus monkey, UniProt Q86Z14 53-992 (human entry))
T1 construct: expressed from KLB cDNA on HEK293T cells and read by FACS
T1 chain: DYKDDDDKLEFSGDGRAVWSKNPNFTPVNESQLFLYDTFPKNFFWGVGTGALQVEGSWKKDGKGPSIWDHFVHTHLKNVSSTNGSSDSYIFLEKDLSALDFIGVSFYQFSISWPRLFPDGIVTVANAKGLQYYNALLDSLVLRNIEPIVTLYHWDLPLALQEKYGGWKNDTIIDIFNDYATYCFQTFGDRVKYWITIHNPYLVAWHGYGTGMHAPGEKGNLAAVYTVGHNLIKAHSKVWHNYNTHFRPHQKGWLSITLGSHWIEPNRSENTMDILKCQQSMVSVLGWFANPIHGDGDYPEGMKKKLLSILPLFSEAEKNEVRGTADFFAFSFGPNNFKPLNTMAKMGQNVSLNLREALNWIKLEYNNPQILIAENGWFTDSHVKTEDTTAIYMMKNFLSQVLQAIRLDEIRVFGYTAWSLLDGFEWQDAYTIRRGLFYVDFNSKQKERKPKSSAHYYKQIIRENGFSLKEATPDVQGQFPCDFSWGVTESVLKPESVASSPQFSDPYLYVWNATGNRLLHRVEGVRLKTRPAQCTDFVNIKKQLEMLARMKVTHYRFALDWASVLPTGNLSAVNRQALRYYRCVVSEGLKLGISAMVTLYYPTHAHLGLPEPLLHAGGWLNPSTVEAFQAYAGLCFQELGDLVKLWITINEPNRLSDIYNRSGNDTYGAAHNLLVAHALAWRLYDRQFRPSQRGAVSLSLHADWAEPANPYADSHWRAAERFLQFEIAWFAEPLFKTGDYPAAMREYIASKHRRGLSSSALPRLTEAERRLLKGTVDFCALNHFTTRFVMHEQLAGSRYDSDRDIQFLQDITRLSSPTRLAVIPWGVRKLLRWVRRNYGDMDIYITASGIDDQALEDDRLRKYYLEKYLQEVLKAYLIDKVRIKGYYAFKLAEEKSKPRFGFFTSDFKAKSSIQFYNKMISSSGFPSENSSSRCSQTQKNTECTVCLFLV

T2: cynomolgus monkey KLB (+N-ter FLAG) (cynomolgus monkey, UniProt Q86Z14 53-991 (human entry))
T2 construct: expressed from KLB cDNA on HEK293T cells and read by FACS; also called Cyno KLB
T2 chain: T1 chain with A135T, N290S, Q369R, V950A

T3: rat KLB (+N-ter FLAG) (rat, UniProt Q99N32 53-989 (mouse entry))
T3 construct: expressed from KLB cDNA on HEK293T cells and read by FACS
T3 chain: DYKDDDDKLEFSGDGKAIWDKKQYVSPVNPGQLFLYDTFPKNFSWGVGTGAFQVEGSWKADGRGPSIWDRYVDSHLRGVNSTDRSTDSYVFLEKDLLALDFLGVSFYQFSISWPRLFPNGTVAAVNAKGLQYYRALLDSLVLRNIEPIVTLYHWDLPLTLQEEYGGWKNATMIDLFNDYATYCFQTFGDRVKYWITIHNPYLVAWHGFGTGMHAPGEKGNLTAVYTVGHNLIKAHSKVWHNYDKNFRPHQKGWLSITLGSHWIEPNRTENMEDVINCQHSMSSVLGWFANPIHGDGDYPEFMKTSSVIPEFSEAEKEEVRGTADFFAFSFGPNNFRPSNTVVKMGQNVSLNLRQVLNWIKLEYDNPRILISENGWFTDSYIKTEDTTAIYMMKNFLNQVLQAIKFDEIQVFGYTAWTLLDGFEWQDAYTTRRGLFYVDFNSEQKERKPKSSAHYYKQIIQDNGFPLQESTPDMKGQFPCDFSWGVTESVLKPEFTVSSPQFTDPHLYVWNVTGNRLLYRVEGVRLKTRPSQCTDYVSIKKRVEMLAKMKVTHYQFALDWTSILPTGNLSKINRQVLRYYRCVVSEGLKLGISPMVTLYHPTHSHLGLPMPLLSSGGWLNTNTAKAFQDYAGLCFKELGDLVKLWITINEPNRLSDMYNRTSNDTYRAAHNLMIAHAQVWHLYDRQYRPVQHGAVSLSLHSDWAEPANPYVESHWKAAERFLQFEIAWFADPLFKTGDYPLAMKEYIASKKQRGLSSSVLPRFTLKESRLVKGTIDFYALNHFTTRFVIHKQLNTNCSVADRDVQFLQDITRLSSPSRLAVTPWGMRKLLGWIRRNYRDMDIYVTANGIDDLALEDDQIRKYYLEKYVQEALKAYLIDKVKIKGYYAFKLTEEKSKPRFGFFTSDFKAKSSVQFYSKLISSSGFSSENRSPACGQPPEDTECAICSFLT

B1: 8E1 (antibody, V domains shown)
VH: EVQLQQSGAELVKPGASVKLSCTAADFNIKDTYMHWVKQRPEQGLEWIGRIDPSNGNAKYDPKFQGKASITADSSSNTAYLHLSSLTSEDTAVYYCASRALGNGYALGYWGQGTSVTVSS
VL: DIQMTQSSSYLSVSLGGSVTITCKASDHINNWLAWYQQKPGNAPRLLIYGTTNLETGVPSRFSGSGSGRDYILSITSLQSEDVASYYCQQYWNTPFTFGSGTKLEIK
notes: murine hybridoma-derived anti-KLB antibody
B2: 25F7 (antibody, V domains shown)
VH: EVQLQQSGAELLKPGASVRLSCTASGFNIQDTFTHWVRQRPEQGLEWIGRIDPSNGNTKYDPKFQGKAKILADTSSNTAYLQLIGLTSEDTAVYYCASRALGNGYAMDYWGQGTSVTVSS
VL: B1 VL with S18R, Y49S, T51A, T52S, V58I, R69K, I72T, S74T, S80T, S85T
notes: as for B1
B3: 8H7 (antibody, V domains shown)
VH: QVQLQQPGAEIVKPGASVRLSCKASGYSFTSYWIHWVKQRPGQGLEWIGEIDPSVSNSNYNQKFKGKATLTADKSSSTAYMQLSGLTSEDSAVYFCVRLGVMVYGSSPFWFAYWGQGTLVTVSA
VL: DIVMTQSQKFMSTSVGDRVSITCKASQFVSDAVAWYQQKPGQSPKLLICSASYRYTGVPDRFTGSGSGTDFTFTISSVRTEDLAVYYCQQHYIVPYTFGGGTTLEIE
notes: as for B1
B4: 14C6 (antibody, V domains shown)
VH: QIQLQQSGAELMKPGASVRMSCKASGYTFSSYWIEWVKQRSGHGLEWIGEIFPGGGSTIYNENFRDKATFTADTSSNTAYMQLSSLTSEDSAVYFCARRGYYDAAWFDYWGQGTLVTVSA
VL: QIVLTQSPAIMSASPGERVTLTCSASSSLSSSYLYWYQQKPGSSPKLWIYGASNLASGVPGRFSGSGSGTSYSLTISSMEAEDAASYFCHQWSSYPLTFGSGTKLELK
notes: as for B1
B5: 12A11 (antibody, V domains shown)
VH: EVKFLESGGGLVQPGGSLRLSCAVSGIDFSRYWMSWVRQAPGKGLEWIGEISPDSSTINYTPSLKDKFVISRDNAKNTLYLQMSKVRSADTALYYCARPSPALDYWGQGTLVTVSA
VL: DIVMTQSPATLSVTPGDRVSLSCRASQSISDYVYWYQQKSHESPRLLIIYASQSISGIPSRFSGSGSGSDFTLSINSVEPEDVGVYYCQNGHNFPYTFGGGTKLEIK
notes: murine hybridoma-derived anti-KLB antibody; also called KLBmAb2
B6: 24A1 (antibody, V domains shown)
VH: QVQLKQSGAELVRPGTSVTLSCKASGYTFTDYEMHWMKQTPVYGLEWIGAIWPENADSVYNQKFKGKVTLTADKSSSTAYMDLRSLTSEDSAVYYCTREGGNYWGQGTTLTVSS
VL: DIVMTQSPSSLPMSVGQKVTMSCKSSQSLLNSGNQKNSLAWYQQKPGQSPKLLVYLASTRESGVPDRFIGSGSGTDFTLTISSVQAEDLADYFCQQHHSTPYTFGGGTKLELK
notes: as for B1
B7: 5F8 (antibody, V domains shown)
VH: EVQLQQSGTELVRPGASVKLSCTSSDFNIKDTYIHWVKQRPEQGLDWLGRIDPANGNTKYDPKFQGKAAMTSDTSSNTAYLRLSSLTSEDTAVYYCASSGNYGAMDYWGQGTSVTVSS
VL: ESVLTQSPALMSASLGEKVTMTCRASSSVNHMYWYQQKSDASPKLWIYYTSTLAPGVPARFSGSGSGNSYSLTISSMEGEDAATYYCQQFTISPSMYTFGGGTKLEIK
notes: as for B1
B8: 12B8 (antibody, V domains shown)
VH: QIQLVQSGPELKKPGETAKISCKASGYAFSNYGMNWVKQAPGKDLKWMGWIDTDTGEATYTDDFKGRFVFSLETSASTAYLQINNLKNEDMATYFCAREEYGLFGFPYWGHGTLVTVSA
VL: DIQMTQSSSSFSVSLGDRVTITCKASEDIYNRLAWYQQKPGSAPRLLISAATSLETGVPSRFSGSGSGKDYTLSITSLQTEDVATYYCQQYWSNPLTFGAGTKLEIK
notes: as for B1
B9: 8C5 (antibody, V domains shown)
VH: QVQLKQSGPGLVQPSQSLSVACTVSDFSLTTYGVHWVRQSPGKGLEWLGVIWSGGSTDYNAAFISRLTISKDNSKSQVFFKMNSLQTTDTAIYYCARDYGSTYVDAIDYWGQGTSVTVSS
VL: DIVLTQSPTSLAVSLGQRATISCRASESVESYGNRYMTWYQQKPGQPPKLLIYRAANLQSGIPARFSGSGSRTDFTLTIDPVEADDVATYYCQQSNEDPWTFGGGTKVEIK
notes: murine hybridoma-derived anti-KLB antibody; also called KLBmAb1

Where a chain is given by its changes, count along the chain named.

The first assay deals with T1, rhesus monkey KLB (+N-ter FLAG). Briefly: FACS on transfected HEK293T cells. How it is done:
(§1) Species cross reactivity of the disclosed anti-KLB antibodies were analyzed by FACS analysis using KLB cDNA from mouse, rat, rabbit, cynomolgus monkey and rhesus monkey cloned into pRK mammalian expression vectors transiently transfected into HEK293T cells. The KLB extracellular domain polypeptide sequences that were expressed are as follows: […]
Take B1: the binding result was “binds”.
Still for that read-out and setting: for B2 the value was “binds”; for B3, “binds”.
On the same count and under the same terms, for B4 the value was “binds”; for B5, “binds”.
Still for that read-out and setting: with B6 the entry was “binds”; with B7, “binds”.
With B8, the binding result is “binds”.
Still for that read-out and setting: with B9 the entry was “binds”.

Another assay deals with T2, cynomolgus monkey KLB (+N-ter FLAG). Briefly: FACS on transfected HEK293T cells. How it is done:
as §1
As to B1, the binding result is “binds”.
The same measure, in the same setting: for B2 the value was “binds”; for B3, “binds”; for B4, “binds”.
In the case of B5, the binding result is listed as “binds”.
On the same count and under the same terms, with B6 the entry was “binds”; with B7, “binds”.
On to B8, for which the binding result was “binds”.
Same read-out and setting: for B9 the value was “binds”.

A further assay deals with T3, rat KLB (+N-ter FLAG). Briefly: FACS on transfected HEK293T cells. How it is done: as §1
Consider B1, for which the binding result is reported as “no binding”.
The same measure, in the same setting: for B2 the value was “no binding”.
With B3, the binding result is “no binding”.
In the case of B4, the binding result is “binds”.
Still for that read-out and setting: for B5 the value was “no binding”; for B6, “binds”.
The same measure, in the same setting: for B7 the value was “no binding”.
Same read-out and setting: with B8 the entry was “no binding”; with B9, “binds”.
